Test results reported in the supplement of paper PMC9112550, “Optimization of the antimicrobial peptide Bac7 by deep mutational scanning” (BMC Biology, 2022).

Test system: Escherichia coli TOP10
Test: shrunken log2 fold change of peptide-encoding DNA abundance (4.5 h post-induction vs induction); higher = less antimicrobial activity (less host growth inhibition)
Details: time post-induction: 4.5 h; library: site-saturation at positions 5, 18, 19, 20
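Also: peptides expressed intracellularly from a pBAD plasmid library in pooled LB shake-flask culture, induced with 0.3% L-arabinose, DNA abundance read by NGS, three biological replicates, DESeq2 with apeglm shrinkage.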

## RRIRIRPPRLPRPRPRPRMTPRP
  shrunken log2 fold change: 0.043

## RRIRPRPPRLPRPRPRPTSYPRP
  shrunken log2 fold change: -0.0178

## RRIRHRPPRLPRPRPRPMHMPRP
  shrunken log2 fold change: -0.0761

## RRIRIRPPRLPRPRPRPQFKPRP
  shrunken log2 fold change: -0.609

## RRIRYRPPRLPRPRPRPKGEPRP
  shrunken log2 fold change: -0.212

## RRIRKRPPRLPRPRPRPCSIPRP
  shrunken log2 fold change: 0.11

## RRIRRRPPRLPRPRPRPALIPRP
  shrunken log2 fold change: 1.05

## RRIRCRPPRLPRPRPRPMRDPRP
  shrunken log2 fold change: 0.281

## RRIRGRPPRLPRPRPRPVDEPRP
  shrunken log2 fold change: 1.05

## RRIRDRPPRLPRPRPRPCDPPRP
  shrunken log2 fold change: 0.041

## RRIRMRPPRLPRPRPRPWTTPRP
  shrunken log2 fold change: -0.0163

## RRIRSRPPRLPRPRPRPTQTPRP
  shrunken log2 fold change: 1.09

## RRIRNRPPRLPRPRPRPWRGPRP
  shrunken log2 fold change: 0.226

## RRIRRRPPRLPRPRPRPIQNPRP
  shrunken log2 fold change: 0.0525

## RRIRFRPPRLPRPRPRPFLKPRP
  shrunken log2 fold change: -0.145

## RRIRPRPPRLPRPRPRPMTIPRP
  shrunken log2 fold change: -0.421

## RRIRPRPPRLPRPRPRPEPWPRP
  shrunken log2 fold change: 0.232

## RRIRWRPPRLPRPRPRPFKIPRP
  shrunken log2 fold change: -0.358

## RRIRERPPRLPRPRPRPSLHPRP
  shrunken log2 fold change: -0.309

## RRIRDRPPRLPRPRPRPWRSPRP
  shrunken log2 fold change: 0.105

## RRIRMRPPRLPRPRPRPRILPRP
  shrunken log2 fold change: 0.0948

## RRIRGRPPRLPRPRPRPFLTPRP
  shrunken log2 fold change: 0.0427

## RRIRPRPPRLPRPRPRPGKYPRP
  shrunken log2 fold change: -0.132

## RRIRERPPRLPRPRPRPVGCPRP
  shrunken log2 fold change: 0.168

## RRIRSRPPRLPRPRPRPNIHPRP
  shrunken log2 fold change: 0.829

## RRIRYRPPRLPRPRPRPRLDPRP
  shrunken log2 fold change: -0.176

## RRIRERPPRLPRPRPRPPHAPRP
  shrunken log2 fold change: 0.229

## RRIRERPPRLPRPRPRPPDYPRP
  shrunken log2 fold change: -0.202

## RRIRWRPPRLPRPRPRPPYWPRP
  shrunken log2 fold change: 0.204

## RRIRMRPPRLPRPRPRPAYVPRP
  shrunken log2 fold change: -0.114

## RRIRWRPPRLPRPRPRPNLCPRP
  shrunken log2 fold change: 0.114

## RRIRSRPPRLPRPRPRPVHSPRP
  shrunken log2 fold change: 0.139

## RRIRNRPPRLPRPRPRPLGDPRP
  shrunken log2 fold change: 0.218

## RRIRDRPPRLPRPRPRPSQNPRP
  shrunken log2 fold change: 0.113

## RRIRHRPPRLPRPRPRPKERPRP
  shrunken log2 fold change: -0.0122

## RRIRTRPPRLPRPRPRPYMNPRP
  shrunken log2 fold change: -0.895

## RRIRDRPPRLPRPRPRPQWFPRP
  shrunken log2 fold change: 0.0117

## RRIRLRPPRLPRPRPRPWRHPRP
  shrunken log2 fold change: -0.0415

## RRIRQRPPRLPRPRPRPDMPPRP
  shrunken log2 fold change: -0.2

## RRIRERPPRLPRPRPRPSIFPRP
  shrunken log2 fold change: -0.343

## RRIRMRPPRLPRPRPRPRPNPRP
  shrunken log2 fold change: 0.903

## RRIRKRPPRLPRPRPRPIHIPRP
  shrunken log2 fold change: -0.39

## RRIRIRPPRLPRPRPRPAEKPRP
  shrunken log2 fold change: -0.213

## RRIRVRPPRLPRPRPRPHKAPRP
  shrunken log2 fold change: -0.0103

## RRIRARPPRLPRPRPRPFTSPRP
  shrunken log2 fold change: 0.0705

## RRIRFRPPRLPRPRPRPSMYPRP
  shrunken log2 fold change: -0.432

## RRIRKRPPRLPRPRPRPCKWPRP
  shrunken log2 fold change: 0.0523

## RRIRQRPPRLPRPRPRPYCLPRP
  shrunken log2 fold change: -0.423

## RRIRLRPPRLPRPRPRPTSKPRP
  shrunken log2 fold change: -0.253

## RRIRMRPPRLPRPRPRPEMCPRP
  shrunken log2 fold change: 3.01
